Paper PMC5982450

What was measured:
[1] = biological target: C5a receptor (C5aR) (human (endogenous in neutrophils)) (UniProt P21730)
[2] = biological target: formylated peptide receptors (FPR) (human (endogenous in neutrophils)) (UniProt P21462)
[3] = biological target: formylated peptide receptors (FPR) (human (endogenous in neutrophils)) (UniProt P21462); remark: listed apart in the source

Chain of UniProt P21462 (P21462 whole entry): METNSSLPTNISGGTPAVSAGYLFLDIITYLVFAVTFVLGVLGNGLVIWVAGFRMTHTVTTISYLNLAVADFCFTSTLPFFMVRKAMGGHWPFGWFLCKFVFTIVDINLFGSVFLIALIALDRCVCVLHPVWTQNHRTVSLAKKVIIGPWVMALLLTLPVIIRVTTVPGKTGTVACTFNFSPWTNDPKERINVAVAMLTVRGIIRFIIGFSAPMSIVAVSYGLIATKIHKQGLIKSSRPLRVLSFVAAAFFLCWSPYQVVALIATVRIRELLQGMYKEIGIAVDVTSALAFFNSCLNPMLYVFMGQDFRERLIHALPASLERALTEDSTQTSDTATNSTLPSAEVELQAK
Chain of UniProt P21730 (P21730 whole entry): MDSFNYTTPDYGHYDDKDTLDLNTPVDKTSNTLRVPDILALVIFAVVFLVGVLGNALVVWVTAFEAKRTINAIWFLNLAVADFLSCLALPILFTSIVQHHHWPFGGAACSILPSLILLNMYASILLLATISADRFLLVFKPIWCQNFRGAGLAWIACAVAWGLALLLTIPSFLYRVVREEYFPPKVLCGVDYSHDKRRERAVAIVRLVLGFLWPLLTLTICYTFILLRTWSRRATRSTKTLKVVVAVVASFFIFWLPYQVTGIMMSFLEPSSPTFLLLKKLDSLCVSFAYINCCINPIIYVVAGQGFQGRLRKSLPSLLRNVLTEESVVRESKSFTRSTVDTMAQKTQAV

Substance | neutrophil chemotaxis towards human fracture hematoma serum in a 3D fibrin gel, mean vector speed without vs with CHIPSΔ1F (10 μg/ml); value is the speed with CHIPSΔ1F [1] [μm/min] | neutrophil chemotaxis towards human fracture hematoma serum in a 3D fibrin gel, mean vector speed without vs with CHIPS (10 μg/ml); value is the speed with CHIPS [2] [μm/min] | neutrophil chemotaxis towards human fracture hematoma serum in a 3D fibrin gel, mean vector speed without vs with CHIPS (10 μg/ml); value is the speed with CHIPS [1] [μm/min] | neutrophil chemotaxis towards fMLF (10^-7 M) in a 3D fibrin gel, mean vector speed without vs with CHIPS (10 μg/ml); value is the speed with CHIPS [3] [μm/min]
CHIPSΔ1F, a CHIPS mutant lacking the first N-terminal amino acid (domain or fragment) | 4 |  |  | 
chemotaxis inhibitory protein of Staphylococcus aureus (CHIPS) (from UniProt A6QIG7 29-149) (natural protein) |  | 3.3 | 3.3 | 0.4
